B1: anti-oxMIF antibody C0077 (antibody, human IgG1, kappa, V domains shown)
VH: EVQLQESGGGLVQPGGSLRLSCAASGFTFSIYSMNWVRQAPGKGLEWVSSIGSSGGTTYYADSVKGRFTISRDNSKNTLYLQMNSLRAEDTAVYYCAGSQWLYGMDVWGQGTTVTVSS
VL: DIQMTQSPSSLSASVGDRVTITCRSSQRIMTYLNWFQQKPGKAPKLLIYVGSHSQSGVPSRFRGSGSETDFTLTISGLQPEDSATYYCQQSFWTPLTFGGGTKVEIKR
notes: Differs from C0076 only by Y36F in VL
B2: anti-oxMIF antibody C0008 (control antibody) (antibody, human IgG1, kappa, V domains shown)
VH: B1 VH with Q5L
VL: B1 VL with F36Y, Y49F, G51A
notes: Human IgG with wt Fc
B3: anti-oxMIF antibody C0078 (antibody, human IgG1, kappa)
heavy: not shown
light: DIQMTQSPSSLSASVGDRVTITCRSSQRIMTYLNWYQQKPGKAPKLLIYVGSHSQSGVPSRFRGSGSETDFTLTISGLQPEDSATYYCQQSFFTPLTFGGGTKVEIKRTVAAPSVFIFPPSDEQLKSGTASVVCLLNNFYPREAKVQWKVDNALQSGNSQESVTEQDSKDSTYSLSSTLTLSKADYEKHKVYACEVTHQGLSSPVTKSFNRGEC
B4: anti-oxMIF antibody C0083 (antibody, human IgG1, kappa)
heavy: not shown
light: B3 light
B5: anti-oxMIF antibody C0100 (antibody, human IgG1, kappa)
heavy: EVQLLESGGGLVQPGGSLRLSCAASGFTFSIYSMNWVRQAPGKGLEWVSSIGSSGGTTYYADSVKGRFTISRDNSKNTLYLQMNSLRAEDTAVYYCAGSQWLYGMDVWGQGTTVTVSSASTKGPSVFPLAPSSKSTSGGTAALGCLVKDYFPEPVTVSWNSGALTSGVHTFPAVLQSSGLYSLSSVVTVPSSSLGTQTYICNVNHKPSNTKVDKRVEPKSCDKTHTCPPCPAPELVGGPSVFLLPPKPKDTLMISRTPEVTCVVVDVSHEDPEVKFNWYVDGVEVHNAKTKPPEEQYNSTLRVVSVLTVLHQDWLNGKEYKCKVSNKALPAPIEKTISKAKGQPREPQVYTLPPSRDELTKNQVSLTCLVKGFYPSDIAVEWESNGQPENNYKTTPLVLDSDGSFFLYSKLTVDKSRWQQGNVFSCSVMHEALHNHYTQKSLSLSPG
light: B3 light
notes: Fc mutated to increase effector functions
B6: anti-oxMIF antibody C0097 (antibody, human IgG1, kappa)
heavy: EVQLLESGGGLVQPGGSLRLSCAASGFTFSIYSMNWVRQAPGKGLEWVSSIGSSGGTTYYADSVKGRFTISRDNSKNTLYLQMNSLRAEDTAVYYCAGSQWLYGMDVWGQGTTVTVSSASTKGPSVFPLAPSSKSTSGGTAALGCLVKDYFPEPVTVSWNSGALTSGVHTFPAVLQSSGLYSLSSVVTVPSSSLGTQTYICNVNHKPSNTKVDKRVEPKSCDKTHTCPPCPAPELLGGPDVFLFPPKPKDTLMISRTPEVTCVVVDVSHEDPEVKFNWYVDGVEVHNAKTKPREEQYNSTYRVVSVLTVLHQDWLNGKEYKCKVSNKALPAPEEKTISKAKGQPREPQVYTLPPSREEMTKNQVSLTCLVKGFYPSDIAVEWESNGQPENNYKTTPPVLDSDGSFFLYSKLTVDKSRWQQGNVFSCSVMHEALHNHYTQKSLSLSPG
light: B3 light
notes: as for B5
B7: anti-oxMIF antibody C0090 (antibody, human IgG1, kappa)
heavy: not shown
light: B3 light with M30L, P80S
B8: anti-oxMIF antibody C0098 (antibody, human IgG1, kappa)
heavy: EVQLLESGGGLVQPGGSLRLSCAASGFTFSIYSMNWVRQAPGKGLEWVSSIGSSGGTTYYADSVKGRFTISRDNSKNTLYLQMNSLRAEDTAVYYCAGSQWLYGMDVWGQGTTVTVSSASTKGPSVFPLAPSSKSTSGGTAALGCLVKDYFPEPVTVSWNSGALTSGVHTFPAVLQSSGLYSLSSVVTVPSSSLGTQTYICNVNHKPSNTKVDKRVEPKSCDKTHTCPPCPAPELLGGPDVFLFPPKPKDTLMISRTPEVTCVVVDVSFEDPEVKFNWYVDGVEVHNAKTKPREEQYNSTYRVVSVLTVLHQDWLNGKEYKCKVTNKALPAPEEKTISKAKGQPREPQVYTLPPSREEMTKNQVSLTCLVKGFYPSDIAVEWESNGQPENNYKTTPPVLDSDGSFFLYSKLTVDKSRWQQGNVFSCSVMHEALHNHYTQKSLSLSPG
light: B3 light
notes: as for B5
B9: anti-oxMIF antibody C0099 (antibody, human IgG1, kappa)
heavy: B8 heavy with R215K, F269H, K275Q, Y297F, Y301F, L310V, T325S, A340T, V398M
light: B3 light
notes: as for B5
B10: anti-oxMIF antibody C0076 (antibody, human IgG1, kappa, V domains shown)
VH: B1 VH
VL: B1 VL with F36Y
B11: anti-oxMIF antibody C0073 (antibody, human IgG1, kappa)
heavy: not shown
light: B3 light
B12: anti-oxMIF antibody C0108 (antibody, human IgG1, kappa)
heavy: EVQLQESGGGLVQPGGSLRLSCAASGFTFSIYSMNWVRQAPGKGLEWVSSIGSSGGTTYYADSVKGRFTISRDNSKNTLYLQMNSLRAEDTAVYYCAGSQYLYGMDVWGQGTTVTVSSASTKGPSVFPLAPSSKSTSGGTAALGCLVKDYFPEPVTVSWNSGALTSGVHTFPAVLQSSGLYSLSSVVTVPSSSLGTQTYICNVNHKPSNTKVDKKVEPKSCDKTHTCPPCPAPELLGGPDVFLFPPKPKDTLMISRTPEVTCVVVDVSHEDPEVQFNWYVDGVEVHNAKTKPREEQFNSTFRVVSVLTVVHQDWLNGKEYKCKVSNKALPAPEEKTISKTKGQPREPQVYTLPPSREEMTKNQVSLTCLVKGFYPSDIAVEWESNGQPENNYKTTPPMLDSDGSFFLYSKLTVDKSRWQQGNVFSCSVMHEALHNHYTQKSLSLSPG
light: B3 light
notes: ADCC/ADCP enhancing mutations in the Fc portion
B13: anti-oxMIF antibody C0109 (antibody, human IgG1, kappa)
heavy: B12 heavy
light: B3 light with M30L, P80S
notes: as for B12

Where a chain is given by its changes, count along the chain named. Names and notes keep the numbering of the source.

Broadly, the Kd is the concentration at which binding is half-saturated.

The target in the first test is T1, oxMIF: recombinant human MIF immobilized into ELISA plates (transforming MIF to oxMIF) (human, UniProt P14174 2-115).
T1 construct: Same polypeptide as redMIF; differs in conformation (oxMIF isoform); also called immobilized MIF; immobilized oxMIF
T1 sequence (P14174 2-115 limits assumed): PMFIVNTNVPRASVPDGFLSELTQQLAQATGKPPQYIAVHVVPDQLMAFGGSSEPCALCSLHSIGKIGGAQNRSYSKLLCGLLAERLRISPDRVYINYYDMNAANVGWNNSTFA
Kind of test: ELISA on plate-immobilized recombinant human MIF (oxMIF). The protocol: (§1) Recombinant human MIF diluted in PBS at 1 μg/ml was immobilized into ELISA plates overnight at 4° C. (transforming MIF to oxMIF according to Thiele et al., 2015). After blocking, serial dilutions of anti-oxMIF antibodies were added to the plates. Finally, bound antibodies were detected using a protein L-HRP conjugate and tetramethylbenzidine (TMB) as substrate. The chromogenic reaction was stopped with 3M H₂SO₄ and OD was measured at 450 nm.
For B1, the “fold reduction in affinity compared to C0076” value was determined as 5 fold.

In a further test the target is T1, oxMIF: recombinant human MIF …. Put plainly: ELISA, antibody titrated on plate-immobilized recombinant human MIF (oxMIF), protein L-HRP; EC50 of 4-parameter fit given as KD, mean of two experiments. How it is done:
as §1
For orientation: In an ELISA, binding on a coated surface is turned into a signal by an enzyme label.
As to B2, the equilibrium dissociation constant (Kd) turned out to be 0.7 nM.

For the molecule B3, the Kd came out at 1.6 nM. Take B4: the Kd is 0.5 nM.

Regarding B5, the dissociation constant Kd came out at 0.5 nM. On the same count and under the same terms, the same measure for B6: 0.8 nM. In the case of B7, the equilibrium dissociation constant (Kd) stood at 0.5 nM. For the molecule B8, the dissociation constant (Kd) was 0.7 nM.

For B9, the dissociation constant (Kd) is 0.4 nM. In the case of B10, the Kd came to 1.1 nM. Turning to B11, the Kd came out at 1 nM. B1: the dissociation constant (Kd) was determined as 5.2 nM.

Another test has the same target. Kind of test: ELISA, antibody titrated on plate-immobilized recombinant human MIF (oxMIF), goat anti-human IgG(Fc)-HRP; EC50 of 4-parameter fit given as KD, two experiments. The protocol:
Recombinant human MIF diluted in PBS at 1 μg/ml was immobilized into ELISA plates overnight at 4° C. (transforming MIF to oxMIF according to Thiele et al., 2015). After blocking, serial dilutions of anti-oxMIF antibodies were added to the plates. Finally, bound antibodies were detected with Goat anti-human IgG(Fc)-HRP conjugate and tetramethylbenzidine (TMB) as substrate. The chromogenic reaction was stopped with 3M H₂SO₄ and OD was measured at 450 nm.
Consider B12, for which the Kd was found to be 0.3 nM.

Turning to B13, the Kd is 0.3 nM.

On to B2, for which the equilibrium dissociation constant (Kd) came to 0.2 nM.

In a further test the target is T2, Human oxMIF (human recombinant MIF treated with 0.2% Proclin300, oxMIF surrogate) (human, UniProt P14174 2-115, treated with 0.2% Proclin300 (active component 5-chloro-2-methyl-4-isothiazolin-3-one) for 3 h to transform MIF into an oxMIF surrogate).
T2 construct: SPR analyte; also called Proclin300 treated MIF; soluble human oxMIF
T2 sequence (P14174 2-115 limits assumed): as above
Kind of test: SPR (Biacore 3000), antibody amine-coupled to CM5 chip, Proclin300-treated MIF 50-150 nM as analyte, 1:1 Langmuir with mass transfer; mean of flow cells 2-4, SD +/-0.38 nM. How it is done: (§2) FC1 was used as reference cell and was only reacted with buffers. Mouse or human recombinant MIF were diluted in HBS-EP buffer (GE Healthcare) to concentrations of 50, 75, 100, or 150 nM in the presence of 0.2% Proclin300 (active component 5-chloro-2-methyl-4-isothiazolin-3-one; Sigma) to transform MIF into an oxMIF surrogate (Thiele M et al., 2015) for 3 h at room temperature. Proclin300 treated MIF was applied to immobilized anti-oxMIF antibodies at a flow rate of 30 μl/min for 3 min using a Biacore™ 3000 Instrument (GE Healthcare). Dissociation time was 300 seconds, and the chip was regenerated using 10 mM HCl for 3 minutes. The kinetics of the concentration series were analyzed by local simultaneous association/dissociation fitting of each binding curve after subtraction of background from the reference cell (FC1) using the iterative Langmuir 1:1 interaction model with mass transfer compensation provided by the BiaEvaluation 4.1 software (GE Healthcare). Data are represented as mean+/−SD (standard deviation) of the calculated KD values of Flow Cells 2-4.
(In SPR one partner is held on a chip, and binding of the other changes the refractive index at the surface.)
For the molecule B2, the Kd was found to be 3.49 nM.

Another test addresses T2, Human oxMIF (human recombinant MIF …). Put plainly: SPR (Biacore 3000), antibody amine-coupled to CM5 chip, Proclin300-treated MIF 50-150 nM as analyte, 1:1 Langmuir with mass transfer; mean of flow cells 2-4, SD +/-0.83 nM. How it is done: as §2
B13: the equilibrium dissociation constant (Kd) was 3.69 nM.

A further test shares this target. Put plainly: SPR (Biacore 3000), antibody amine-coupled to CM5 chip, Proclin300-treated MIF 50-150 nM as analyte, 1:1 Langmuir with mass transfer; mean of flow cells 2-4, SD +/-2.30 nM. The protocol: as §2
With B12, the equilibrium dissociation constant (Kd) was 6.06 nM.
